{"source": "paper PMC12078605", "molecular_target": "Shiga toxin 2a B-subunit (StxB2a) (E. coli (endogenous in STEC/EHEC strains TS18/08, LB226692, HUSEC003, HUSEC004, HUSEC008, HUSEC018))", "assay": "native gel or EMSA", "note": "Several values for one entry are separate records, joined by “and”; a condition that tells them apart may be missing. Equal values may be shown once."}
{"substance": "Shiga toxin 2a B-subunit (StxB2a) (natural protein)", "values": [{"measurement": "stoichiometry N", "value": "2 and 3 and 5"}]}
